Experimental data as given in the DeepSol protein solubility set.

Assay: soluble on expression in E. coli; label from the status in PepcDB or PDB records
With “GPGSMFSLVRGLYSSIFADDTRKVLIVGLESSGKTTLSEQLKHMYATESSKNGANSSTTEENSGDATASEVNYNFPTPAPVESLRKKIRPTTGLNRSSVTHVTTPPQHETPNVSLTPLTTPLILWDIGGSLRPLWGNFFGTCHGVIFVVDSTLGEATSNGCSEGGRKTSPDQVGTSEDDESDVGAQPNSPIGDVREGERSQFLRKLYAKDALILRQMFSHPLLAGAPLLIVSNKVDAANHHTLVEIQDALRLVDVALMDEFYADDCVVGEPVYGELHRNGEGDYEGPPDRSAYDKLSNEKSFGGVATPPPGSSGIGNRVMRLVEMSALHGTGVVDGMNWLVAQMRDSGRQPLPDDGK” the “soluble on expression in E. coli” value was “not soluble”. With “SAPGVPDARAIAAICEQLRQHVADLGVLYIKLHNYHWHIYGIEFKQVHELLEEYYVSVTEAFDTIAERLLQLGAQAPASMAEYLALSGIAEETEKEITIVSALARVKRDFEYLSTRFSQTQVLAAESGDAVTDGIITDILRTLGKAIWMLGATLKA” the “soluble on expression in E. coli” value was “soluble”. In the case of “MGSDKIHHHHHHMPYSSKEEAAQGWADIIARARSCSAGAARKAVAQLGRRDLFFLLTRLLGREEMFNDWCFARCAEVQRQPDGMLDLWAREHYKSTIITFGQSIRDILNDPEITIGIFSHSRPVAKGFLAQIKHEFEQNHALKTLYPDVLYSDPKRQSPRWSLDGGLVVRRSTNPKEATVEAWGLVDGQPTGKHFRLLVYDDVVTRESVTSPEMIAKVTECWALSLNLGARGGACRTIGTRYHYNDTYKTMMDRKAAEPRIHAATADGTPDGPSVFLPQNELADKRRRMGPFVFGCQMLQNPVADRMQGFREEWLRWWQPGAASWQAMNRYILVDPAASRKEQADWTVMLVVGLGADGNYYLIDGIRDRLNLTGRAGALFRLHRTYRPLAVGYEQYGMQADIEYMHTEMDRRNHRFDITPLAGRLAKADRIRRLVPLFEGGRVYLPRVCPFTDSEGRQRDLSRELVTEEYLAFPVCGHDDMLDCLARITDSALGAHPAVDSNAQYESTANMEYPLWT”, the “soluble on expression in E. coli” value is reported as “not soluble”. In the case of “MTRLAVEAAEQARLAAEVEAQRIAAETAEHARVVAEAEAKRVADEQALFAAEAEAHRITAEAAEQARMEAEAQAQRDADEHARVTAEAQALEAGKTLRLPEAGTPQLGAVAGVISVTAGSGLFLDATIQAAIEILAALVGTAVSSTTAVGIGTLLYSPSLGNGELPGRMLDLPARVLMPDLPDALNDVAATGGTVDMPYRIYGDQSKYSVVATQPEGGFSPKVPVRALILDPVANAYTFTTSDTPPITLTFPIAAPENSSTTTVAQPIETPAYTGITLEPIEVKAEPLPATSPLDIRDAIYVYPVNSGLPPVYVVFSSPYEGATTKGEHSGRMYDPDNAGGPTQNLDWTTASVTQNGIDLVKLHTGRFEPSDANAVMIDRLEKILRSELSMTDTDKRFYTHELRELERYRALGVADGVEGEVWNNAHTATLEDYKLKDSSESFYTPEAITAENKQVYGELEHHHHHH”, the “soluble on expression in E. coli” value is reported as “not soluble”. For “MARPLVPSSQKALLLELKGLQEEPVEGFRVTLVDEGDLYNWEVAIFGPPNTYYEGGYFKARLKFPIDYPYSPPAFRFLTKMWHPNIYETGDVCISILHPPVDDPQSGELPSERWNPTQNVRTILLSVISLLNEPNTFSPANVDASVMYRKWKESKGKDREYTDIIRKQVLGTKVDAERDGVKVPTTLAEYCVKTKAPAPDEGSDLFYDDYYEDGEVEEEADSCFGDDEDDSGTEESLEHHHHHH”, the “soluble on expression in E. coli” value was “not soluble”. For “MGHHHHHHSHMISAHRNLHLPGSSNSPASAFLSSWDYRHVPPCPANVVFLVEMGFLHVGQAGLELPTSDDPPTLASQSAGITGVSHRTWQEFASLTVSQAVLRMLVWGPQFENHCSKLLMASEGDSSLVFFLYPLSNLN”, the “soluble on expression in E. coli” value was “not soluble”. For “MKTIWTGAIGFGLVNIPVKLFSATHESRLDLDMLDKKDHSNIKFQRVNAKTGKEVAWDNIVKGYKIEDDYVILDEKDFEKANAKKTKTIEILQFVQEDEIDSVYFETPYYIQPDKSGTRAYALLREALIKSKKVAVANYVLRNKEALAILKPVGNVIVLNKIRFQEEILDADALDLPAKSAIKEGEMKMALSLIDQLTETFDISKYKDTYTSELLKLIKAKAKGTVVKTKSAASKPTATKDLMAQLKASLQPTKRAAAR”, the “soluble on expression in E. coli” value was “not soluble”. In the case of “MGHHHHHHSHMARATTKQDLIMASNGQFEKLWVLIDGMSDDLQNATFADQMATAGKEAHWGRDKNLRDVLVHLYEWHQLLLNWINSNSKGERKPFLPEPYNWKTYSVMNVEFWKKHQQTPLAEAKDKLKESHRQVMALIETFSNDELFAKGVFDWTDTSTLGAYCVSATSSHYDWAMKKIKLHIKTGK”, the “soluble on expression in E. coli” value is reported as “soluble”. In the case of “MGSDKIHHHHHHMINPIILPLDKVRNPRDLGSYVGYNGRKIKMHRLLRTGKISNITEHDKKFLLDYGLTKIIDLRSPFECKKAPDSQIPGVEHIDLSISTEDNTKGGKKDITKVFETYRKDQYAGFNMMCDRYRSHVMKEHAQHALHSILEVLANTKDGAIIYHCSEGKDRTGIVTVLILYLLGVDMETIRQDYLYSNYMLDNYRASRDKIMQENGENLCFRANMRILGSVSDAFLDTSLIAIHKNFGSLDNYLKEIIGVTPELRDTLRELYLED”, the “soluble on expression in E. coli” value is reported as “not soluble”. With “MGSDKIHHHHHHMGVIQKIKNLVTRSKYVMTTQSLTNITDHPKIAISKLEYDRITTNLKYYKSDWDSVLYLNTDGETKKRDLNHLPIARTAAKKIASLVFNEQAEIKVDDDAANEFISETLKNDRFNKNFERYLESCLALGGLAMRPYVDGDKVRVAFVQAPVFLPLQSNTQDVSSAAVVIKSVKTINGKEVYYTLIEFHEWQSSDDYVISNELYRSDDKAKVGSRVPLSEVYKDLKDEAKVTDVTRPIFTYLKTPGMNNKDINSPLGLSIFDNAKTTIDFINTTYDEFMWEVKMGQRRVAVPESLTALTVRTADGDVVPRPRFESDQNVYIRMGGRDLDSSAIQDLTTPIRADDYIKAINEGLSLFEMQIGVSAGLFSFDGKSMKTATEIVSENSDTYQMRNSIVTLVEQSLKELVISIFEIAKAYDLYQSEVPSMDNISISLDDGVFTDRDAELDYWIKVVNAGFGTREMAIQKVLNVTEEKAQEIAAEINTGIVDEINQQRTDTHLYGE” the “soluble on expression in E. coli” value was “not soluble”. For “RAHQRWREHALAVIKDKMYNHIGSILVFLPGVADIRFLLDSLMAQKVEGVKICPLFGELSLKEQQQAIAPCLSGHRKIVLATNIAETSLTIDGIDLVIDCGLEKVAVFDSASLMNKLMQKQISKASAVQRAGRAGRLMHGQCIRLYGKDDFERR”, the “soluble on expression in E. coli” value was “not soluble”. In the case of “MSLDDERTQVLLKRDSEVFLHQAMSTPCLDTLDAAEGIYIQDATGKKYMDFHGNNVHQLGYGHPHVIKRVQEQIAKLPFSPRRFTNETAIECAEKLTQICGGELNRVLFAPGGTSAVGMALKLARHITGNYKVVSLWDSFHGASLDAISVGGEACFRQGMGPLMAGVERIPPAVSYRGAFPVADGSDVHYADYLEYVIEKEGGVGAFIAEAVRNTDVQVPSKAYWKRIREICDKHNVMLIIDDIPNGMGRSGEWFTYQAYDIEPDMLCIGKGLGGGLVPIAAMVTKDKYNTAEQISMGHYTHEKSPIGCAAALATMEAIEQDGLLDKVKADSQFMREKLLEMKAKYPVIGDVRGIGMLWGIELVTDHESKARAYDEAEAVLYQCLNNGVSFKVSQGNVIQLSPPLIITREQLTEALAIFEEAIAKVCKEGHHHHHH”, the “soluble on expression in E. coli” value is reported as “not soluble”. For “MAEEHHHHHHHHLEVLFQGPGRPKTHTVGSVAKVEQVKFDATSMHVKPQVAAQQKMVDDGSGEVQVWRIENLELVPVDSKWLGHFYGGDCYLLLYTYLIGEKQHYLLYVWQGSQASQDEITASAYQAVILDQKYNGEPVQIRVPMGKEPPHLMSIFKGRMVVYQGGTSRTNNLETGPSTRLFQVQGTGANNTKAFEVPARANFLNSNDVFVLKTQSCCYLWCGKGCSGDEREMAKMVADTISRTEKQVVVEGQEPANFWMALGGKAPYANTKRLQEENLVITPRLFECSNKTGRFLATEIPDFNQDDLEEDDVFLLDVWDQVFFWIGKHANEEEKKAAATTAQEYLKTHPSGRDPETPIIVVKQGHEPPTFTGWFLAWDPFKWSGIHVVPNLSPLSNN”, the “soluble on expression in E. coli” value was “soluble”. With “GSHPLGDTSDASKLSSDYSLPDLINTRKVPNNWQTGEQASLEEGRIVLTSNQNSKGSLWLKQGFDLKDSFTMEWTFRSVGYSGQTDGGISFWFVQDSNIPRDKQLYNGPVNYDGLQLLVDNNGPLGPTLRGQLNDGQKPVDKTKIYDQSFASCLMGYQDSSVPSTIRVTYDLEDDNLLKVQVDNKVCFQTRKVRFPSGSYRIGVTAQNGAVNNNAESFEIFKMQFFNGVIEDSLIPNVNAMGQPKLITKYIDQQTG” the “soluble on expression in E. coli” value was “soluble”. For “MGSDKIHHHHHHMLTTGTTRITGDRKLNDLIGHLIDPQLVEVEAAPQIKAMATSRLNFKMQKQTQTNWCWAAVSASVGNFYRTGSWTQCGVASASLDRNCCNQPGPCNIYGYLDSALRITRSYNGMNRGSLQMSAIRNQIKKGRPIGLRCAWYGGGAHFLVIYGTDGDYLLIADSIYGYSTRALNSFPRLYKSGGNWTDTYFTVKK”, the “soluble on expression in E. coli” value was “not soluble”. For “MIELHQKRLSAPKTYKIPRKVSKWVVKPSPGPHNKEAIPLLVLVRDFLELADTGREARRIISAGEILVDGVVRKDYKFPVGLFDVVTIPKLEKSYRILFDEKGRYIPKEVEDADLKLYKITNKTLVRGGKVQLNLFDGTNILGSNDYKTKDSILLRIPEKEVVDHLKFEEGALVMITGGTHAGEIGRIKSYKIVRSSAPNLVTVEGEERDITTIEDYVFVVGKKDSDKPVIDLGVLEHHHHHH”, the “soluble on expression in E. coli” value was “soluble”. In the case of “MRGSHHHHHHGAGDRGPEFPEESSPRRTPQSIPYQDLPHLVNADGQYLFCRYWKPTGTPKALIFVSHGAGEHSGRYEELARMLMGLDLLVFAHDHVGHGQSEGERMVVSDFHVFVRDVLQHVDSMQKDYPGLPVFLLGHSMGGAIAILTAAERPGHFAGMVLISPLVLANPESATTFKVLAAKVLNLVLPNLSLGPIDSSVLSRNKTEVDIYNSDPLICRAGLKVCFGIQLLNAVSRVERALPKLTVPFLLLQGSADRLCDSKGAYLLMELAKSQDKTLKIYEGAYHVLHKELPEVTNSVFHEINMWVSQRTATAGTASPPLEVDLQGDHGLSAWSHPQFEK”, the “soluble on expression in E. coli” value is reported as “soluble”. With “MSRTAVREAVKTLTAKGMVLPRPRIGTRVMPQSNWNFLDQELLTWWITEENFHQVIDHFLVMRICLEPQACLLAATVGTAEQKAHLNTLMAEMAALKENFRRERWIEVDMAWHEHIYEMSANPFLTSFASLFHSVYHTYFTSITSDTVIKLDLHQAIVDAIIQSDGDAAFKACQALLRSPDK” the “soluble on expression in E. coli” value was “not soluble”. In the case of “SKDFMISAKGTFTYAKNQYMEIDEPDYEYAYMSQVGRPLNQYKGYIALGLFKDQEEIDNSPKQILTGVVQPGDIKYADLNNDGKIDGNDQTYIGNPELPQISYGLGVSIQYKKWDASIFFQGVGKRSIMLSDIHPFGGESYGVMQFVADNHWTEANPNPEAMYPRLTNGKNNNNNPNSTYWLRDGSYIRLKNVELGYSYKFLRAYISGQNLLTFSKFKLWDPELYTSNGLKYPTQIMGSIGLQFTF”, the “soluble on expression in E. coli” value is reported as “not soluble”. With “MARQTMNPSIRYLIGVDGGGTGTRIRLHASDGTPLAMAEGGASALSQGIAKSWQAVLSTLEAAFQQAGLPAAPASACAIGLGLSGVHNRQWAGEFESQAPGFARLSLATDGYTTLLGAHGGQPGIIVALGTGSIGEALYPDGSHREAGGWGYPSGDEASGAWLGQRAAQLTQMALDGRHSHSPLTRAVLDFVGGDWQAMMAWNGRATPAQFARLAPLVLSAARVDPEADALLRQAGEDAWAIARALDPQDELPVALCGGLGQALRDWLPPGFRQRLVAPQGDSAQGALLLLQRPSTRLEHHHHHH” the “soluble on expression in E. coli” value was “soluble”.
